The target in experiment [1] is GCN4-gp41-inter (HIV-1 clade A isolate 92UG037.8 (gp41 part)). The experiment in a line: SPR, GCN4-gp41-inter immobilized on CM5 chip, Fab as analyte, 1:1 Langmuir (single curve).
Experiment [2] addresses gp41-inter (HIV-1 clade A isolate 92UG037.8). The experiment in a line: SPR, gp41-inter immobilized on CM5 chip, Fab as analyte, 1:1 Langmuir (single curve).
For experiment [3] the target is unchanged. The experiment is described as follows: SPR, gp41-inter immobilized on CM5 chip, Fab as analyte, 1:1 Langmuir.
The target of experiment [4] is GCN4-gp41-inter (HIV-1 clade A isolate 92UG037.8 (gp41 part)). The experiment in a line: SPR, GCN4-gp41-inter immobilized on CM5 chip, Fab as analyte, 1:1 Langmuir.

In experiment [1], 4E10 Fab gave a Kd of 4.86 nM, an off-rate constant (koff) of 0.000237 s⁻¹ and an on-rate (kon) of 48800 M⁻¹ s⁻¹. In experiment [2], this substance registered a Kd of 8.85 nM, an off-rate constant (koff) of 0.000235 s⁻¹ and a kon of 26600 M⁻¹ s⁻¹.
In experiment [3], 2F5 Fab returned a Kd of 0.415 nM, a koff of 0.00019 s⁻¹ and a kon of 457000 M⁻¹ s⁻¹. Moreover, in experiment [4], the Kd was 0.317 nM, the koff amounted to 0.000158 s⁻¹ and the kon was found to be 498000 M⁻¹ s⁻¹.
For Z13e1 Fab, in experiment [3], the Kd worked out at 97.7 nM, the koff is 0.00548 s⁻¹ and the on-rate (kon) was determined as 56000 M⁻¹ s⁻¹. Besides, in experiment [4], the Kd is 34 nM, the koff is 0.00289 s⁻¹ and the kon was 85000 M⁻¹ s⁻¹.

For the origin of these results see patent US20140112936A1.
